± gives the standard deviation of the averaged measurements.
How the values were obtained:
MCF7 = experiment: percentage of EdU-negative (G0-arrested) nuclei per well, 72 h; higher = more G0 arrest; settings: reference: sequence is the full UniProt precursor, the tested protein was the secreted form or ectodomain
hTERT-HMEC = experiment: as above; settings: reference: sequence is the full UniProt precursor, the tested protein was the secreted form or ectodomain
[1] = protein concentration 0.0257143 µM
[2] = protein concentration 0.257143 µM
[3] = protein concentration 0.0225 µM
[4] = protein concentration 0.03125 µM
[5] = protein concentration 0.3125 µM
[6] = protein concentration 0.0251975 µM
[7] = protein concentration 0.251975 µM
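Also: secreted proteins added to cultured cells, EdU pulse at the end, nuclei found by Hoechst imaging, EdU status from nuclear versus surrounding ring intensity ratio, PBS as neutral control.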

Sequence | percentage of EdU-negative (MCF7; [3]) | percentage of EdU-negative (MCF7; protein concentration 0.225 µM) | percentage of EdU-negative (hTERT-HMEC; [3]) | percentage of EdU-negative (hTERT-HMEC; protein concentration 0.225 µM) | also measured
MAPAMESPTLLCVALLFFAPDGVLAVPQKPKVSLNPPWNRIFKGENVTLTCNGNNFFEVSSTKWFHNGSLSEETNSSLNIVNAKFEDSGEYKCQHQQVNESEPVYLEVFSDWLLLQASAEVVMEGQPLFLRCHGWRNWDVYKVIYYKDGEALKYWYENHNISITNATVEDSGTYYCTGKVWQLDYESEPLNITVIKAPREKYWLQFFIPLLVVILFAVDTGLFISTQQQVTFLLKIKRTRKGFRLLNPHPKPNPKNN |  |  |  |  | percentage of EdU-negative (MCF7; [1]): 24.7 ± 1.3%; percentage of EdU-negative (MCF7; [2]): 25.9 ± 1.7%; percentage of EdU-negative (hTERT-HMEC; [1]): 4.74 ± 1.5%; percentage of EdU-negative (hTERT-HMEC; [2]): 5.8 ± 0.29%
MAPAQRPLLPLLLLLLPLPPPPFARAEDAARANSDRYAVYWNRSNPRFHAGAGDDGGGYTVEVSINDYLDIYCPHYGAPLPPAERMEHYVLYMVNGEGHASCDHRQRGFKRWECNRPAAPGGPLKFSEKFQLFTPFSLGFEFRPGHEYYYISATPPNAVDRPCLRLKVYVRPTNETLYEAPEPIFTSNNSCSSPGGCRLFLSTIPVLWTLLGS | 25.4 ± 3% | 27.3 ± 0.45% | 5.69 ± 1.4% | 9.78 ± 0.54% | 
MAPARAGCCPLLLLLLGLWVAEVLVRAKPKDMTSSQWFKTQHVQPSPQACNSAMSIINKYTERCKDLNTFLHEPFSSVAITCQTPNIACKNSCKNCHQSHGPMSLTMGELTSGKYPNCRYKEKHLNTPYIVACDPPQQGDPGYPLVPVHLDKVV [Q8TDE3] | 28.2 ± 0.91% | 27.5 ± 4.3% | 5.33 ± 0.52% | 5.09 ± 1.2% | 
MAPARAGFCPLLLLLLLGLWVAEIPVSAKPKGMTSSQWFKIQHMQPSPQACNSAMKNINKHTKRCKDLNTFLHEPFSSVAATCQTPKIACKNGDKNCHQSHGAVSLTMCKLTSGKHPNCRYKEKRQNKSYVVACKPPQKKDSQQFHLVPVHLDRVL [Q9H1E1] |  |  |  |  | percentage of EdU-negative (MCF7; [4]): 24.6 ± 0.7%; percentage of EdU-negative (MCF7; [5]): 26 ± 3.1%; percentage of EdU-negative (hTERT-HMEC; [4]): 4.51 ± 0.69%; percentage of EdU-negative (hTERT-HMEC; [5]): 6.66 ± 0.32%
MAPGSRTSLLLAFALLCLPWLQEAGAVQTVPLSRLFDHAMLQAHRAHQLAIDTYQEFEETYIPKDQKYSFLHDSQTSFCFSDSIPTPSNMEETQQKSNLELLRISLLLIESWLEPVRFLRSMFANNLVYDTSDSDDYHLLKDLEEGIQTLMGRLEDGSRRTGQILKQTYSKFDTNSHNHDALLKNYGLLYCFRKDMDKVETFLRMVQCRSVEGSCGF [P0DML2] |  |  |  |  | percentage of EdU-negative (MCF7; [4]): 28.31 ± 0.052%; percentage of EdU-negative (MCF7; [5]): 25.8 ± 0.31%; percentage of EdU-negative (hTERT-HMEC; [4]): 5.53 ± 0.26%; percentage of EdU-negative (hTERT-HMEC; [5]): 6.34 ± 1.3%
MAPISLSWLLRLATFCHLTVLLAGQHHGVTKCNITCSKMTSKIPVALLIHYQQNQASCGKRAIILETRQHRLFCADPKEQWVKDAMQHLDRQAAALTRNGGTFEKQIGEVKPRTTPAAGGMDESVVLEPEATGESSSLEPTPSSQEAQRALGTSPELPTGVTGSSGTRLPPTPKAQDGGPVGTELFRVPPVSTAATWQSSAPHQPGPSLWAEAKTSEAPSTQDPSTQASTASSPAPEENAPSEGQRVWGQGQSPRPENSLEREEMGPVPAHTDAFQDWGPGSMAHVSVVPVSSEGTPSREPVASGSWTPKAEEPIHATMDPQRLGVLITPVPDAQAATRRQAVGLLAFLGLLFCLGVAMFTYQSLQGCPRKMAGEMAEGLRYIPRSCGSNSYVLVPV | 24.7 ± 2.4% | 25.18 ± 0.043% | 4.91 ± 0.028% | 5.92 ± 0.33% | 
MAPLKMLALVTLLLGASLQHIHAARGTNVGRECCLEYFKGAIPLRKLKTWYQTSEDCSRDAIVFVTVQGRAICSDPNNKRVKNAVKYLQSLERS |  |  |  |  | percentage of EdU-negative (MCF7; [6]): 26 ± 0.51%; percentage of EdU-negative (MCF7; [7]): 25.9 ± 0.28%; percentage of EdU-negative (hTERT-HMEC; [6]): 5.05 ± 1.6%; percentage of EdU-negative (hTERT-HMEC; [7]): 5.85 ± 0.93%
MAPLRPLLILALLAWVALADQESCKGRCTEGFNVDKKCQCDELCSYYQSCCTDYTAECKPQVTRGDVFTMPEDEYTVYDDGEEKNNATVHEQVGGPSLTSDLQAQSKGNPEQTPVLKPEEEAPAPEVGASKPEGIDSRPETLHPGRPQPPAEEELCSGKPFDAFTDLKNGSLFAFRGQYCYELDEKAVRPGYPKLIRDVWGIEGPIDAAFTRINCQGKTYLFKGSQYWRFEDGVLDPDYPRNISDGFDGIPDNVDAALALPAHSYSGRERVYFFKGKQYWEYQFQHQPSQEECEGSSLSAVFEHFAMMQRDSWEDIFELLFWGRTSAGTRQPQFISRDWHGVPGQVDAAMAGRIYISGMAPRPSLAKKQRFRHRNRKGYRSQRGHSRGRNQNSRRPSRATWLSLFSSEESNLGANNYDDYRMDWLVPATCEPIQSVFFFSGDKYYRVNLRTRRVDTVDPPYPRSIAQYWLGCPAPGHL | 25.1 ± 3.1% | 31.11 ± 0.19% | 5.37 ± 0.14% | 4.7 ± 1.1% | 

From the supplement of paper PMC11316812
